The values below come from patent publication US20120058906A1 (published 2012).

In assay [1] the target is T1, Recombinant Human DLL4 (R&D Systems, Cat#1506-D4/CF) (human, UniProt Q9NR61 27-529).
T1 construct: Bought protein; also called rHuman DLL4; delta-like protein 4
As to the kind of experiment: ECL (MSD) Fab titration; binding affinity estimated from the 50% binding signal.

The target in assay [2] is T2, rHuman Erythropoietin R/Fc Chimera, CF (R&D Systems Cat#963-ER) (human, UniProt P19235 25-250).
T2 construct: Bought protein; also called EPO R/Fc; EPOR; not shown: Fc of the bought chimera
T2 sequence: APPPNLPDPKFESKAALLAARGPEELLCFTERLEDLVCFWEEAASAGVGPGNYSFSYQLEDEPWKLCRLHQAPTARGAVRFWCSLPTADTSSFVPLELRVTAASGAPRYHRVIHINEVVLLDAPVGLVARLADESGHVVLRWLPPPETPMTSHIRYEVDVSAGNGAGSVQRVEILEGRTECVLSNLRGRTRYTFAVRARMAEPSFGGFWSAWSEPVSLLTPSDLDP
Briefly: ECL (MSD multi-spot) titration, Fab at 0.25 uM; blank spot 6344.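 Note: blank spot per well as comparator with Hit at signal to blank ratio of 4 or more.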

The target of assay [3] is T3, rHuman EGF R/Fc Chimera, CF (R&D Systems Cat#344-ER) (human, UniProt P00533 25-645).
T3 construct: Bought protein; also called epidermal growth factor receptor; not shown: Fc of the bought chimera
The assay is described as above.

The target of assay [4] is T4, rHuman IGF-1 sR, CF (R&D Systems Cat#391-GR) (human, UniProt P08069 31-932).
T4 construct: Bought soluble receptor; also called insulin-like growth factor-1 soluble receptor; IGF-R1
Described as above.

Assay [5] concerns the target T5, rHuman P-Cadherin/Fc Chimera, CF (R&D Systems Cat#861-PC) (human, UniProt P22223 108-654).
T5 construct: Bought protein; not shown: Fc of the bought chimera
The assay is described as above.

For assay [6], the target named is T6, Recombinant Human DLL4 (R&D Systems Cat#1506-D4/CF) (human, UniProt Q9NR61 27-524).
T6 construct: Bought protein; also called delta-like protein 4
The description is as above.

For assay [7], the target named is T2, rHuman Erythropoietin R/Fc Chimera, CF …. Briefly: ECL (MSD multi-spot) titration, Fab at 0.0625 uM; blank spot 1738.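 Note: blank spot per well as comparator with Hit at signal to blank ratio of 4 or more.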
Assay [8] deals with T3, rHuman EGF R/Fc Chimera, CF (R&D …). The description is as above.
Assay [9] has as its target T4, rHuman IGF-1 sR, CF (R&D Systems …). The assay is described as above.
Assay [10] concerns the target T5, rHuman P-Cadherin/Fc Chimera, CF (R&D …). The description is as above.
Assay [11] addresses T6, Recombinant Human DLL4 (R&D Systems …). The description is as above.
For assay [12], the target named is T2, rHuman Erythropoietin R/Fc Chimera, CF …. Briefly: ECL (MSD multi-spot) titration, Fab at 0.00391 uM; blank spot 576.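 Note: blank spot per well as comparator with Hit at signal to blank ratio of 4 or more.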
Assay [13] addresses T3, rHuman EGF R/Fc Chimera, CF (R&D …). Described as above.
For assay [14], the target named is T4, rHuman IGF-1 sR, CF (R&D Systems …). The assay is described as above.
In assay [15] the target is T5, rHuman P-Cadherin/Fc Chimera, CF (R&D …). The assay is described as above.
The target of assay [16] is T6, Recombinant Human DLL4 (R&D Systems …). Described as above.
In assay [17] the target is T2, rHuman Erythropoietin R/Fc Chimera, CF …. Briefly: ECL (MSD multi-spot) titration, Fab at 0.01563 uM; blank spot 906.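 Note: blank spot per well as comparator with Hit at signal to blank ratio of 4 or more.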
Assay [18] has as its target T3, rHuman EGF R/Fc Chimera, CF (R&D …). The assay is described as above.
Assay [19] deals with T4, rHuman IGF-1 sR, CF (R&D Systems …). Described as above.
In assay [20] the target is T5, rHuman P-Cadherin/Fc Chimera, CF (R&D …). Described as above.
Assay [21] has as its target T6, Recombinant Human DLL4 (R&D Systems …). The description is as above.

B1: Fab VH1-46_IGHD6-6*01_IGHJ1*01 & L6_IGKJ1*01 (Fab, V domains shown)
VH: QVQLVQSGAEVKKPGASVKVSCKASGYTFTSYYMHWVRQAPGQGLEWMGIINPSGGSTSYAQKFQGRVTMTRDTSTSTVYMELSSLRSEDTAVYYCAREEYSSSSAEYFQHWGQGTLVTVSS
VL: not shown
notes: Fab from E. coli; VH joined to CH1 with Flag and His tags (Plasmid A), VL to kappa CL (Plasmid C)
As usually defined, the Kd is the concentration at which binding is half-saturated. Turning to B1, the Kd in assay [1] was at most 10 nM.

B2: Fab VH1-46_IGHD2-15*01_IGHJ2*01 & L2_IGKJ1*01 (Fab, V domains shown)
VH: QVQLVQSGAEVKKPGASVKVSCKASGYTFTSYYMHWVRQAPGQGLEWMGIINPSGGSTSYAQKFQGRVTMTRDTSTSTVYMELSSLRSEDTAVYYCAREGYCSGGSCYSYWYFDLWGRGTLVTVSS
VL: not shown
notes: also called Fab No. 6
Consider B2, for which the ECL signal stood at 49200 in [2]; 117000 in assay [3]; 11000 in assay [4]; 25500 in assay [5]; 27700 in [6]; 21100 in [7]. For the same molecule, the ECL signal in assay [8] amounted to 94800; in assay [9], 3150; in [10], 7740; in [11] it was 8050; in [12], 5020; in assay [13] it was 35900. In addition, the ECL signal in assay [14] worked out at 822; in [15] it was 1960; in assay [16], 1550; in assay [17] it was 11300; in assay [18], 70800; in assay [19], 1740. Also, the ECL signal in assay [20] was 4940; in assay [21] it was 4020.
